Assay results published in patent US20230140293A1.
pKd: −log10 of the molar value.

Columns and labels:
[1] = target: CH505 transmitted/founder (TF) gp120 (HIV-1); test: SPR
[2] = target: CH505 M11 gp120 (HIV-1); test: ELISA, gp120 on plate
[3] = target: CH505 transmitted/founder (TF) gp120 (HIV-1); test: ELISA, gp120 on plate
[4] = target: CH505 w020.14 gp120 (HIV-1); test: ELISA, gp120 on plate
[5] = target: CH505 TF chimeric SOSIP.III trimer (CH505TFchim.6R.SOSIP.664V4.1) (HIV-1 (CH505 gp120 / BG505 gp41 chimera)); test: kinetics, method not named (FIG. 69); reference CH505 TF gp120

## CH103 lineage unmutated common ancestor (UCA) (antibody)
[1]
  pKd: 6.70
[2]
  log AUC: 2.6 log AUC
[3]
  log AUC: 3.5 log AUC
[4]
  log AUC: 0.3 log AUC
[5]
  fold improvement of the off-rate against CH505 TF gp120: 10 fold
